Experimental data published in the supplement of paper PMC12636428.

Tested on: Saccharomyces cerevisiae
Assay: transcriptional activation domain activity (GFP:mCherry ratio, weighted mean of sorted bins, harmonized to initial dataset scale) (arbitrary fluorescence ratio units); higher = stronger transcriptional activation
Settings: beta-estradiol 1 µM; induction time 4 h
Summary of the method: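 In diploid yeast carrying a GFP reporter, barcoded protein tiles fused to an estradiol-inducible synthetic transcription factor were integrated at the URA3 locus. Cultures diluted 1:5 into SC with 1 uM beta-estradiol were kept at 30 °C for 4 hours, then sorted by GFP:mCherry ratio into 8 bins before barcode sequencing. Tiles with under 50 reads were excluded. The activation activity reported here is the read-weighted mean of bin median fluorescence, averaged across barcodes and linearly rescaled to the initial dataset.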

Row | Sequence | transcriptional activation domain activity
1 | NPLPPKNNGQAAYKETDGIRIKDRRVLVDVERGRTVKGWKPRRFGGGLGGRGY | 47500
2 | CFLVLSCRWLLVLPALTYLATSVLYTYDITITVTGQTRSVRLPSSIACILNVA | 42200
3 | EPEQVEAVVEVEEKQEEVKPVEEEIKVEQPVVEQQQEEPTPVVSQVPASTPLP | < 6570
4 | TVGPVDNNYRDLEAYLETRYLRYCDPSKSLHLMATLMVRCAINILRFMARHPR | 54100
5 | WYGFLVTWGLLVLFIICFYFFISVSCCAFCVLFSSTWSFGRLFLLTFPLILLL | 41700
6 | PAPAAAAASSSTATEKASGEQQPRESKRNPRHRNKRGRDNKDKDGKEGAGGKS | 28100
7 | FYFFFLLSLFSSSSPPLIFLALPLPFSISLTVSNPLAFPVAFFPLFSLSSLLN | 65800
8 | MSPSSAVFFFFFFCIALFDSVWLVSFFMVLFFLFDSSLYSLLFFSCLFFFIHS | 50000
9 | TASTGTEARNAETTTRRVRSGIVNRRSHAKSRTGCRTCKRRRIKCDESRPSCR | 22400
10 | RWGGILNTHLCLLSTLVLCCTMLRFCINVIWTDTFVNWEMGWRTVCPWLLILL | 44600
11 | MCVLFGNFFFFLLFSFCFYLFFFLSSFLAPLPAFFLLFCLLMGRKIGVGIIPL | 40800
12 | GFVGENSASASVVEVLLRTGGFSTRSLRRRLLETFQLVLEVTHSLAFIKPGGK | 53300
13 | MDPQIDSQTPKRPSRGACRECASSKVKCLPQSSTNDGKCERCQLRGKACERRS | 22700
14 | MIWCSFLLALSWSYFCDLPCFFFFFFFFFFFFFFFADIYCSFLSFKLITPISF | 52600
15 | MRMLLYLLIHFIFMGVWTWLSWFSEVELLMVVLGLLETCFELTDMCGFCIFFV | 69500
16 | MSFQPLFYLLGLGVLFPLLFLLLSPPLFPSMAPFFLLQILLLMLTTELFFVPL | 39700
17 | FVTFVFCPPLLAFAHRFGRKVLKRIILALLAFHLVIVLLSSAIMSPYDELHPK | 34300
18 | DSDGDEEPGKKRQKTALSCGECKRRKIKCDRKVPCVSCIKRGEPEKCNWEEAR | 30900
19 | PVALLSLCFNLCFQTCMHIVSLDLHYHFPNLSLGRSLNILRAFSFFVMIFFIS | 88100
20 | FEFQHTRLYMAFRELEGKLLPCLIEANGLDLVIATLLSVVEKVTEVSNIRLTS | 35600
21 | FDIITASLENSYQTTLTEKGSQVMEKNMDQLDSVHNLNDDDLQQLLEDLGNID | 111000

Row | Sequence | transcriptional activation domain activity
22 | FLLGVFVCLVNLREWWMVDRGPRIMMGEFGKVLSVRMRFALTLHFREQVHVNH | 48800
23 | EDGNGHGTHCSGTIAGKKYGVAKKAHVYAVKVLRSNGSGSMSDVVKGVEFAAT | 42400
24 | IRWHIREHQLRVLAKFCADRIGDPYVYCPCIIAKGLVLALIRIVSALLEKPAI | 56200
25 | ERPREKKEHSRRHRDDEEKGRRRRHRSRSRSRDRRERRRERSRSRERRRGGDE | 13000
26 | LFSLCFSEICTLFLLLMCQGIDLLDPGVRLINWKVSLWLLLATILVFIPLSYS | 43900
27 | LCNVLRLYFYLLYFIFYRNLFARLRDVEQFAMIQIASSVWVTILYPMRMTRPV | 72900
28 | PPLSSPFLCFPLCFPLPPLPLFPPSPLFPLSSPPSLFPFPPLPLFNPFLPSLC | 29800
29 | KRHLPWPWNGERLIFILQDVWVPNFNEHHLLWTLDLKRKGLTFIALTNVWGIY | 50300
30 | TLIHEPDQLLFFPFFLFALFLSFPSFLLPSFFLLFLLFYFFPSYLLLCLFSFI | 51700
31 | YVGRSVLIHQSHGSFEILILWNHYPLLCFFFCHGRRRVFSARLSLLLFCLCRF | 54700
32 | MVTIWDFFLGGWGWAFYIICLFFFLSFYFLSFFFFSLLSSFFFFGYSPSAVWV | 29600
33 | MCFVVFIRWELLMISHCAVVYLLLLFLLFIVHYFLIEGFLFLYVLVRAFAFVL | 41900
34 | VIYTSFFLYIYTPFIPFFFLFFFFLLLIPTFYIYMKRVLYYGLILWWFIQYSL | 51700
35 | EMRHVILIVFIGMVGCWISQWVFWVGFLKLYSGQGYCPPRLGTLALNWILFSV | 43200
36 | MDEEADEKGGKRRTSRACDGCRRRKIRCIASGEANSSEKAPCVNCAQSKLSCT | 27500
37 | RLRVWELGRNSWTVYKFNPDLFPFIDVYPWPRICRLLKCLVFVFRYLEIIRPL | 51800
38 | MTFLHLYFSLSSCLLKTCLSFFVPTPQLLHFTSCIFICFIGTGVFFLYFPFLF | 65700
39 | MLSLRQCYLVLCTLLIITGVGLASTIFIPVNPFYQLLLMENVAFPWIHFILFC | 49900
40 | FLTAIPAVPFAGGLSFNILLLFHHSLPFAGFLAHGFYRIIFPITLFFLPIFML | 52900
41 | VKGGGDSRKVKGAESGQSGSGSGKQSGSRRRAVSSSRTRGSKEPDASIKSNGT | 35100
42 | ADASSSRPQQSKGDKGRSRAPGADRKQESSSSSARASGTGGNNTNGGSSSNNN | 34100

Row | Sequence | transcriptional activation domain activity
43 | FLLLFFFFVYFHLSFSFLTFLLSPLFVFIFMFYFGSFIFLPLSLFLFSLLFFS | 66100
44 | MALEFLMDDIHLNKFLLLGYGVISKFLIVCHRYSKVVGETYYVIHTGIFYLLG | 56200
45 | SKSEVSGTGRKAYAQKGRGKARVHSLRAPQFRGGGRAFPVKPRDFSSEIQIKV | 61100
46 | EEEPATKKQKTDDAAATTNGDAKPKGKPGRPKKAESEKKSPAKKRDPKKAATA | 33700
47 | MHFAVKVKMQFFFFPSLSFFSSVVFISPPPPFVFLWHMGFLACLLFRSLVVFF | 57000
48 | EQEEEEEEEEAKQPKKKRAKKWFEDESSGDEDTGDRKKKKRKARAAAAAAAAA | 41300
49 | MRILFTICRYFPLLFYPFYLWAWVPVHSKELCEKLICPFGQYLCILILLCACW | 56600
50 | MLLKVSEPFSLFVYISGSAITLFSFFKFLFSLFFLLLILFFFPLFFFFPIVIV | 80000
51 | RSSSGKDRDRERDGGRDRNGKSSSSSRRREKERDEDSGDERRKSSSSSRRRRD | 44400
52 | NRSDEPELDVKELNRHVNADNLSDLQLDDSQKMGYVYKCLGAGIHLLRLSLRL | 39000
53 | AGNGWLLVGWFILHHFVVVSGILVAMLCLSFWDLWGSPGSPLLSRPWVAACFA | 50500
54 | KGAPKKSKGEEKEEVVAEETKVEVKVVKETKKVDKAAKAETKKDEVKKVKKVE | 46000
55 | VYLCNVNLSIFKSVLSWVGVCTALYGCITIMPIFRHDSPYHTPLSFLAWHIVI | 63600
56 | KTGEDRGRGRGRGRGKRKGEGRGGEGKTGEEGEEEEEEKGERREREREREKKK | 23400
57 | FVGNQAGCYNLVPVYDWIKRCIISIFVVFFISFLPLFLQELCERGVIRALYRL | 72800
58 | WLAHSKKKTCDVCKHPYSFTKVYATDMPTRLPPVLLLRRVAQQSFFAMLFAVR | 48100
59 | LRWMLRCAFALTRYGTTAFLLFFVYVVFLLRVYLLTDRRRSLLYCLTATFVVE | 40100
60 | MFFIFFFWFVFFPLTIFLLSSSIFGFLFSSSFLFYYYYFFLWGGRPFIFPFYS | 33300
61 | AIHRQLVESILGTTLRCTADISALDVSIADTLWYLLDGTARMVIQFFAVVLFA | 62700
62 | PEALIQFNQVWVNHFKDPFTNIYYHQSPELSGSKYYELIYLRAFICLMFCFQF | 55100
63 | IPENELLDEDTMNFISSLKNDLSNISNSLPFEYPHEIAEAIRSDFSNEDIYDN | 98200

Row | Sequence | transcriptional activation domain activity
64 | LFLKIYMLNPLHMTRFADLLYQGAILNRVFQPYESHLQYLLQWMCDYNLYGCA | 65100
65 | EGKGKKGEKREREKRRGRGGKREKRRKREGRRRREKREGKEGGGEKEEKEGEE | 29000
66 | MGLGVLYHLSLLFPFLFFFLSLLFFSLLSSSFFLLWLFPISCLGFIVLFWTGS | 22200
67 | MFLPIVPFMLMLLRLLRLLRLLMLLMLLMLLPLFLFLFLLVMLCLFPLILLLL | 56200
68 | ILRVERTGHSGTLDPKVTGCLIVCIDRATRLVKSQQGAGKEYVAVIRLHGKLP | 33800
69 | SFLIGGGSAFWLITYGLFYWASRLSLDSLASVVLYLGYLFLLALFDFLITGTI | 36700
70 | MLFPFRVSAISPDVICFIPLCFSFCYHFAIRVRGILPSRVRALMMYVWFVWYF | 51900
71 | YAILYFLFFGAWGLRIMSHLPSWWYNCPQFWIDYPHWQMTPELKCYYLMQASY | 73600
72 | ESGSGSGSESGDSKDTAKAQGRGRKRGRESENHSSEDEEESVERKPRKARKFR | 36100
73 | AYNALIFALVVCICTFGCCAYIFVSSLFIHKLYNKFIILAAHIWMIIFWLVDL | 62400
74 | FRLVPFVLWPPFTRRQTDELYLFSWSFLALIWFFIWSLVQFPIVLTVLLSLVF | 52000
75 | RRDVTLMGGLCLHTIQGAYLAACAYFVVPFSLVVSLGFEALLLLFCFIFIFIF | 50400
76 | KEEEQKGEKEEDESEKETEKEEKKEEKKEKRKLMRRKPKAEELESEASEDERE | 21700
77 | KPHHKWIVPTPFSSHAFHPVDGYAQSVPYHLFVFIFPMQRHLYLFLFVAVNFW | 44100
78 | NTCCCFFVCSFPSSKQKTLGALREGSWTFFFCFFLFFFLFFLVFFCFFLFCFF | 24000
79 | LLVRIIGRCGFLGASFQVALLSDYISIMTLHIYWFYAVAARIYFWQLSILHSL | 43100
80 | TFTDIPVVVCHVFKQKLAKLMSNLCTMFPNAGWLVYSITSIEFQKHGVTHRND | 51100
81 | MDLFFLLHFFIFIFLWHWLGSCLVWLFLVWLWGVFSFFFYYIFSCVSFFGSAI | 61300
82 | TKAATGGTASSSKPQLAVQKKQQPAEGKKQPVTQKLPPAAAQKLQQKAPATAA | 29300
83 | LPDKGKSTEIMTSKLVGRHEFLPVPDFEDQIRRLYENLLISLLSDTQLLIVAW | 55800
